Measurements: US20120308554A1, “VEGF-D/VEGFR2/3-MEDIATED REGULATION OF DENDRITES” (UNIVERSITAT HEIDELBERG, priority 2011, published 2012)
Like-named read-outs stand apart in the source and are kept apart here.

Test system: hippocampal neurons
Test: Morphometric analyses (total dendritic length, Sholl analysis, spine density) of cultured hippocampal neurons
Format: cell-based, mice
Conditions: for rescue of reduction in dendrite length and complexity caused by CaMBP4 or CaMKIVK75E: recombinant factors 100 ng/ml for 3 days, or VEGFD-HA expression
Experimental: Hippocampal neurons from newborn C57BL/6 mice were cultured as known in the art. Experiments were done after a culturing period of 10 to 14 days in vitro (DIV). DNA transfection was done on DIV8 using Lipofectamine 2000 (Invitrogen, San Diego, Calif.). For the studies on dendrite morphology, neurons were analyzed 4-5 days after transfection.
For 3D Sholl Analysis, total dendritic length and spine morphology were calculated using Object-Image freeware software with a specific set of macros (written by Dr. E. Ruthazer, McGill University, Quebec). Briefly, a z-Stack acquisition was imported, calibrated in Object-Image and manually traced. Total dendritic length was then computed. For Sholl analysis, the shell interval was set at 5 μm. All analyses were performed blind. In all in vitro experiments, for each condition, a minimum of 12 neurons from three independent preparations was analyzed. For the Golgi staining quantifications of 20 neurons for each condition from 4 different injected animals per viral construct were traced and analyzed.
Hippocampal neurons were fixed with 4% paraformaldehyde at room temperature for 20 min. For immunostaining, primary and secondary antibodies were applied in GDB buffer (30 mM phosphate buffer [pH7.4] containing 0.2% gelatin, 0.5% Triton X-100, and 0.9 M NaCl). For the morphometric analyses, fluorescence images were acquired using a confocal laser-scanning microscope TCS SP2 (Leica, Mannheim, Germany) equipped with an inverted fluorescence microscope DM IRE2 (Leica) and Leica confocal scan software. All images were obtained with sequential acquisition setting at a resolution of 1024×1024 pixels. Each image was a z series projection of images taken at 1 μm intervals.

In the case of “shp38α: shRNA specific for the alpha isoform of p38 MAPK (AAACACGAAAATGTGATTGGT; SEQ ID NO: 3) [reference compound]”, the “effect on rVEGFD-induced rescue of dendrite length and complexity” value (neurons expressing CaMBP4 (and CaMKIVK75E), rVEGFD 3 days) is reported as “prevented the rVEGFD-induced rescue”.

For `C[S+]([O-])c1ccc(-c2nc(-c3ccncc3)c(-c3ccc(F)cc3)[nH]2)cc1` (centres unmarked) [SB203580, reference compound], the “Sholl analysis, SB203580 alone” value was “showed no difference compared to the respective untreated controls” and the “effect on rVEGFD-induced rescue of dendrite length and complexity” value was “severely compromised the ability of rVEGFD to rescue the impairment of dendrite length and complexity”.

B1: VEGFD-HA: HA-tagged VEGFD expressed from rAAV plasmid or rAAV (protein, UniProt P97946 94-210, looked up)
Vascular endothelial growth …: FAATFYDTETLKVIDEEWQRTQCSPRETCVEVASELGKTTNTFFKPPCVNVFRCGGCCNEEGVMCMNTSTSYISKQLFEISVPLTSVPELVPVKIANHTGCKCLPTGPRHPYSIIRR
modifications: HA tag
In the case of B1, the neuronal morphology (neurons without nuclear calcium signaling blockade) is reported as “no detectable effect on neuronal morphology”, the “restoration of spine density in CaMBP4 or CaMKIVK75E expressing neurons” value (rVEGFD 100 ng/ml 3 days or VEGFD-HA expression) is reported as “failed to restore normal spine density” and the “rescue of reduction in dendrite length and complexity caused by CaMBP4 or CaMKIVK75E” value is reported as “rescued the reduction in dendrite length and complexity”.

B2: resiVEGFD-HA: HA-tagged VEGFD resistant to shVEGFD, expressed from plasmid (protein, UniProt P97946 94-210, looked up)
Vascular endothelial growth …: B1 Vascular endothelial growth …
modifications: HA tag; shRNA-resistant coding sequence
notes: HA-tagged VEGFD resistant to shVEGFD, expressed from plasmid
In the case of B2, the “effect on reduction of dendrite length and complexity caused by shVEGFD” value (pAAV-shVEGFD transfected neurons, rVEGFD 100 ng/ml 3 days or co-transfection) is reported as “rescued the reduction of dendrite length and complexity”.

B3: rVEGFC: recombinant mouse VEGFC (Biocat) (protein, UniProt P97953 108-223, looked up)
Vascular endothelial growth …: AHYNTEILKSIDNEWRKTQCMPREVCIDVGKEFGAATNTFFKPPCVSVYRCGGCCNSEGLQCMNTSTGYLSKTLFEITVPLSQGPKPVTISFANHTSCRCMSKLDVYRQVHSIIRR
B3 was tested, and the “rescue of reduction in dendrite length and complexity caused by CaMBP4 or CaMKIVK75E” value was “neither recombinant VEGF (rVEGF) nor recombinant VEGFC (rVEGFC) was able to rescue”.
